{
  "source": "patent US20230265151A1",
  "about": "“GIP/GLP1 CO-AGONIST COMPOUNDS” (priority 2020, published 2023)",
  "experiment_in_all_cases": "cell-based or functional assay",
  "key": {"[1]": {"target": "T1, human glucose-dependent insulinotropic polypeptide (GIP) receptor (human, UniProt P48546 22-466)", "T1 sequence (looked up)": "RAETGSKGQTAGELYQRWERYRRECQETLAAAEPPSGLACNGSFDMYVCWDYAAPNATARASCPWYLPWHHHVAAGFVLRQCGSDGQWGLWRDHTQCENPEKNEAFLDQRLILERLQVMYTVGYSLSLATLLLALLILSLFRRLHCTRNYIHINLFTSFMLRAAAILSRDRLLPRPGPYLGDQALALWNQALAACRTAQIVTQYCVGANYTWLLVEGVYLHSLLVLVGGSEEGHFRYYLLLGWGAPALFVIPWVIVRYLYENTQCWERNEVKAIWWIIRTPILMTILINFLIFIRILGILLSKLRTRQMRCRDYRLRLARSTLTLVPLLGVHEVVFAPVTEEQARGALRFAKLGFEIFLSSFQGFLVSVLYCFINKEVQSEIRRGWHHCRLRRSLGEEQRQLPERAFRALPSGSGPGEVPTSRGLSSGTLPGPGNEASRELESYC"}, "[2]": {"target": "human glucagon-like peptide-1 (GLP-1) receptor (human, UniProt P43220 24-463)"}, "[3]": {"target": "human glucagon receptor (human, UniProt P47871 26-477)"}},
  "note": "*1 amine or outer side, *2 acyl side, *3 side chain or, on linkers, in order; H or OH if unused. Where no end group is shown, it is not given here. Side-chain parts run from the residue outwards. [ ]: non-standard residue; d: D form. The star is where a group is joined. Butanoyl(4-(4-tBuPh)) = CC(C)(C)c1ccc(CCCC(=O)*)cc1; αMePhe(2-F) = C[C@](N)(Cc1ccccc1F)C(=O)O; γGlu = O=C(O)[C@H](CCC(=O)[*:2])N[*:1]; αMeY = C[C@](N)(Cc1ccc(O)cc1)C(=O)O; αMeF = C[C@](N)(Cc1ccccc1)C(=O)O; αMeL = CC(C)C[C@](C)(N)C(=O)O; Lauroyl = CCCCCCCCCCCC(=O)*; Orn = NCCC[C@H](N)C(=O)O; AEEA = NCCOCCOCC(=O)O; Aib = CC(C)(N)C(=O)O",
  "data": [
    {"binder": "Y[Aib]EGT[αMePhe(2-F)]TSDV[Aib]I[αMeL]LD[Orn]K([AEEA-AEEA-γGlu-Butanoyl(4-(4-tBuPh))])AQ[Aib]EFI[dE][αMeY]LIEGGK([AEEA-AEEA-γGlu-Butanoyl(4-(4-tBuPh))])SSGAPPPS-NH2", "note": "[Example 177]", "values": [
      {"measurement": "cAMP EC50", "setting": "[1]", "value": 0.0433, "unit": "nM"},
      {"measurement": "cAMP Emax", "setting": "[1]", "value": 113, "unit": "%"},
      {"measurement": "cAMP EC50", "setting": "[2]", "value": 0.178, "unit": "nM"}
    ]},
    {"binder": "Y[Aib]EGT[αMeF]TSDV[Aib]I[αMeL]LD[Orn]K([AEEA-AEEA-γGlu-Lauroyl])AQ[Aib]EFI[dE][αMeY]LIEGGK([AEEA-AEEA-γGlu-Lauroyl])SSGAPPPS-NH2 (N-terminus assumed; SMILES CCCCCCCCCCCC(=O)N[C@@H](CCC(=O)NCCOCCOCC(=O)NCCOCCOCC(=O)NCCCC[C@H](NC(=O)CNC(=O)CNC(=O)[C@H](CCC(=O)O)NC(=O)[C@@H](NC(=O)[C@H](CC(C)C)NC(=O)[C@](C)(Cc1ccc(O)cc1)NC(=O)[C@@H](CCC(=O)O)NC(=O)[C@@H](NC(=O)[C@H](Cc1ccccc1)NC(=O)[C@H](CCC(=O)O)NC(=O)C(C)(C)NC(=O)[C@H](CCC(N)=O)NC(=O)[C@H](C)NC(=O)[C@H](CCCCNC(=O)COCCOCCNC(=O)COCCOCCNC(=O)CC[C@H](NC(=O)CCCCCCCCCCC)C(=O)O)NC(=O)[C@H](CCCN)NC(=O)[C@H](CC(=O)O)NC(=O)[C@H](CC(C)C)NC(=O)[C@](C)(CC(C)C)NC(=O)[C@@H](NC(=O)C(C)(C)NC(=O)[C@@H](NC(=O)[C@H](CC(=O)O)NC(=O)[C@H](CO)NC(=O)[C@@H](NC(=O)[C@](C)(Cc1ccccc1)NC(=O)[C@@H](NC(=O)CNC(=O)[C@H](CCC(=O)O)NC(=O)C(C)(C)NC(=O)[C@@H](N)Cc1ccc(O)cc1)[C@@H](C)O)[C@@H](C)O)C(C)C)[C@@H](C)CC)[C@@H](C)CC)[C@@H](C)CC)C(=O)N[C@@H](CO)C(=O)N[C@@H](CO)C(=O)NCC(=O)N[C@@H](C)C(=O)N1CCC[C@H]1C(=O)N1CCC[C@H]1C(=O)N1CCC[C@H]1C(=O)N[C@@H](CO)C(N)=O)C(=O)O)", "note": "[Example 176]", "values": [
      {"measurement": "cAMP EC50", "setting": "[1]", "value": 0.0485, "unit": "nM"},
      {"measurement": "cAMP Emax", "setting": "[1]", "value": 89.3, "unit": "%"},
      {"measurement": "cAMP EC50", "setting": "[2]", "value": 0.298, "unit": "nM"}
    ]},
    {"binder": "YXEGTXTSDXSIXLDXKAQXEFIXXLIEGGKSSGAPPPS (Aib2, αMeF(2F)6, 4Pal10, αMeL13, Orn16, Aib20, D-Glu24, αMeY25; acylated K17, K31 (groups as in name); C-terminal amide)", "note": "[Y-Aib-EGT-αMeF(2F)-TSD-4Pal-SI-αMeL-LD-Orn-K((2-[2-(2-Amino-ethoxy)-ethoxy]-acetyl)2-(γ-Glu)-CO-(CH2)12-CO2H)AQ-Aib-EFI-(D-Glu)-αMeY-LIEGGK((2-[2-(2-Amino-ethox …, listing 1 of 5 here]", "values": [
      {"measurement": "cAMP EC50 (1.0% HSA)", "setting": "[3]", "value": "> 9950", "unit": "nM"}
    ]},
    {"binder": "YXEGTXTSDXSIXLDXKAQXEFIXXLIEGGKSSGAPPPS (Aib2, αMeF(2F)6, 4Pal10, αMeL13, Orn16, Aib20, D-Glu24, αMeY25; acylated K17, K31 (groups as in name); C-terminal amide)", "note": "[Y-Aib-EGT-αMeF(2F)-TSD-4Pal-SI-αMeL-LD-Orn-K((2-[2-(2-Amino-ethoxy)-ethoxy]-acetyl)2-(γ-Glu)-(4-(4-tert-butylphenyl)butanoyl))AQ-Aib-EFI-(D-Glu)-αMeY-LIEGGK((2- …, listing 2 of 5 here]", "values": [
      {"measurement": "cAMP EC50 (1.0% HSA)", "setting": "[3]", "value": "> 9950", "unit": "nM"}
    ]},
    {"binder": "YXEGTXTSDXSIXLDXKAQXEFIXXLIEGGKSSGAPPPS (Aib2, αMeF(2F)6, 4Pal10, αMeL13, Orn16, Aib20, D-Glu24, αMeY25; acylated K17, K31 (groups as in name); C-terminal amide)", "note": "[Y-Aib-EGT-αMeF(2F)-TSD-4Pal-SI-αMeL-LD-Orn-K((2-[2-(2-Amino-ethoxy)-ethoxy]-acetyl)2-(γ-Glu)-CO-(CH2)12-CH3)AQ-Aib-EFI-(D-Glu)-αMeY-LIEGGK((2-[2-(2-Amino-ethoxy …, listing 3 of 5 here]", "values": [
      {"measurement": "cAMP EC50 (1.0% HSA)", "setting": "[3]", "value": "> 9950", "unit": "nM"}
    ]},
    {"binder": "YXEGTXTSDXSIXLDXKAQXEFIXXLIEGGKSSGAPPPS (Aib2, αMeF(2F)6, 4Pal10, αMeL13, Orn16, Aib20, D-Glu24, αMeY25; acylated K17, K31 (groups as in name); C-terminal amide)", "note": "[Y-Aib-EGT-αMeF(2F)-TSD-4Pal-SI-αMeL-LD-Orn-K((2-[2-(2-Amino-ethoxy)-ethoxy]-acetyl)2-(γ-Glu)-CO-(CH2)10-CH3)AQ-Aib-EFI-(D-Glu)-αMeY-LIEGGK((2-[2-(2-Amino-ethoxy …, listing 4 of 5 here]", "values": [
      {"measurement": "cAMP EC50 (1.0% HSA)", "setting": "[3]", "value": "> 9950", "unit": "nM"}
    ]},
    {"binder": "YXEGTXTSDXSIXLDXKAQXEFIXXLIEGGKSSGAPPPS (Aib2, αMeF(2F)6, 4Pal10, αMeL13, Orn16, Aib20, D-Glu24, αMeY25; acylated K17, K31 (groups as in name); C-terminal amide)", "note": "[Y-Aib-EGT-αMeF(2F)-TSD-4Pal-SI-αMeL-LD-Orn-K((2-[2-(2-Amino-ethoxy)-ethoxy]-acetyl)2-(γ-Glu)-CO-(CH2)14-CH3)AQ-Aib-EFI-(D-Glu)-αMeY-LIEGGK((2-[2-(2-Amino-ethoxy …, listing 5 of 5 here]", "values": [
      {"measurement": "cAMP EC50 (1.0% HSA)", "setting": "[3]", "value": "> 9950", "unit": "nM"}
    ]}
  ]
}
